Results from patent US20220220508, “ENGINEERED CASX SYSTEMS” (Scribe Therapeutics Inc., published 2022).

Target: CasX2 (StX2, wild-type reference CasX) (Planctomycetes)
Test: cleavage_in_vitro; kcleave; TTC PAM
Conditions: tags: N-terminal SV40 NLS, C-terminal NLS, TEV site and twin Strep tag; label: fluorescent
Procedure: In vitro cleavage assays were performed essentially as described in Example 19, using CasX 2 (SED ID NO:2), CasX 119, and CasX 438 complexed with single guide 174 with spacer 7.37 targeted against B2M. Fluorescently labeled dsDNA targets that would be complementary with a 7.37 spacer and either a ITC, CTC, CTC, or ATC PAM were used (The DNA sequences used to generate each dsDNA substrate are shown in Table 29. The PAM sequences for each are bolded. TS—target strand. NTS—Non-target strand). Target DNA was incubated with a 20-fold excess of the indicated RNP and the amount of cleaved target was determined at the indicated. time points. The monophasic fit of the combined replicates is shown. During the assay, samples were taken at 0.25, 0.5, 1, 2, 5, 10, 30, and 60 minutes. Gels were imaged with an Amersham Typhoon and quantified using the IQTL 8,2 software. Apparent first-order rate constants for non-target strand cleavage (kcleave) were determined for each Casx:sgRNA complex on each target. Rate constants for targets with non-TTC PAM were compared to the TIC PAM target to determine whether the relative preference for each PAM was altered for a given CasX variant. The results are shown in FIG. 73 (the monophasic fit of the combined replicates is shown) and Table 30. […]

B1: sgRNA 174.7.37 ; 7.37 TTC PAM target (ssRNA ; dsDNA)
RNA: ACUGGCGCUUUUAUCUGAUUACUUUGAGAGCCAUCACCAGCGACUAUGUCGUAGUGGGUAAAGCUCCCUCUUCGGAGGGAGCAUCAAAGGGCCGAGAUGUCUCGCUCCG
DNA 1: TGAAGCTGACAGCATTCGGGCCGAGATGTCTCGCTCCGTGGCCTTAGCTGTGCTCGCGCT
DNA 2: AGCGCGAGCACAGCTAAGGCCACGGAGCGAGACATCTCGGCCCGAATGCTGTCAGCTTCA
How did the activity turn out when B1 was run?
The activity was 0.267 min⁻¹.
